# Results as given in patent US6066485A, “Growth factor inducible serine/threonine phosphatase fin13” (New York University, priority 1997, dated 2000).
# T1: his-FIN13 (Mus musculus, UniProt Q61074)
# T1 construct: Purified his-tagged full length FIN13 (his-FIN13); made in house; host or cells: E. coli BL21(DE3)
# T1 sequence (Q61074 151-542 limits assumed): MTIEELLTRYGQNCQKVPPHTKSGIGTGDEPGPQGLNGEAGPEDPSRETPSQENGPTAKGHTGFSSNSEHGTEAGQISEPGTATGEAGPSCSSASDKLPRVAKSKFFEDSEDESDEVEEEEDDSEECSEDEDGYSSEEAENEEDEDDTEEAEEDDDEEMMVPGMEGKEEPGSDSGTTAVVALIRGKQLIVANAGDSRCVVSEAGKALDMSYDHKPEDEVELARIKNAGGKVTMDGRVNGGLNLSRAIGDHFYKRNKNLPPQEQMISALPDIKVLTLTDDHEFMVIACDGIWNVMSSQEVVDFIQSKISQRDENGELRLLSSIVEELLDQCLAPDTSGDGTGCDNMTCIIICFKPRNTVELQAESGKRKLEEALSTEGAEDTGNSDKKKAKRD
# Tests used:
# HeLa cells = experiment: BrdU incorporation in transiently transfected HeLa cells; type: cell-based, human; details: summary of Table 1
# Experimental: Bromodeoxyuridine (BrdU) incorporation. The effect of FIN13 expression on BrdU incorporation was determined in HeLa cells growing asynchronously in DMEM/10% calf serum. Cells were plated at 10000 cells/ml on coverslips and after 24 h were transfected with 10 μg of either pRKERK2-HA, CMVβ or pRKFIN13. Twenty four hours after transfection the medium was changed and the cells were incubated with BrdU labelling reagent (10 μl) for a further 12 h according to the suppliers instructions (Boehringer Mannheim). Following labelling, coverslips were rinsed in PBS and cells were fixed in 70% ethanol-50 mM glycine (pH 2.0) overnight at -20° C. Incorporated BrdU was detected with FITC-conjugated anti-BrdU (Boehringer Mannheim) by immunocytochemistry (see below).
# Immunocytocliemistry. Fixed cells on coverslips were washed twice in PBS and twice in PBS/0.02% BSA followed by incubation with the primary antibody diluted in PBS/0.02% BSA for 1 hour at 37° C. (anti-FIN13 polyclonal serum at 1:200, anti-HA monoclonal antibody 12CA5 acities at 1:200 or anti-β-galactosidase GAL40 monoclonal antibody at 1:500). After washing, coverslips were incubated in secondary antibody as above (anti-rabbit Texas red at 1:200, anti-mouse Texas red at 1:200)(Molecular Probes). The coverslips were washed again and then incubated in […] (1:500) FITC-conjugated anti-BrdU (Boehringer Mannheim) as above. Where noted, cells were also stained with 1 μg/ml bis-benzimide (Hoechst #33342) in PBS. Coverslips were mounted and examined using a fluorescence microscope.
# Cells Transiently Transfected with FIN13 are Blocked in the Cell Cycle. We have utilized a transient transfection approach to examine the effect of FIN13 expression on DNA synthesis and cell cycle progression. […] ERK2 is expressed as a nuclear protein in HeLa cells in the presence of 10% serum (Chen et al., Mol. Cell. Biol. 12:915-927 (1992)) while β-galactosidase is predominantly cytoplasmic. […] BrdU incorporation was detected using FITC-conjugated anti-BrdU antibodies.
# his-FIN13 = biological target: T1, his-FIN13; experiment: Phosphatase assay of bacterially expressed his-FIN13 with 32P-labelled casein; type: biochemical; details: for effect on his-FIN13 phosphatase activity: 20 μg/ml, 20 mg/ml in FIG. 5 legend
# Experimental: FIG. 5. Phosphatase activity of bacterially expressed FIN13. Purified his-tagged full length FIN13 (his-FIN13) or his-tagged catalytic domain FIN13 (his-FIN13-cat) were examined for their ability to dephosphorylate ^32 P-labelled cascin in vitro as described in the Materials and Methods. Phosphatase assays were performed in the absence of his-FIN13 (No FIN13; open bar) or with his-FIN13 incubated in the presence of 10 mM of the indicated divalent cation (MgCl2, ZnCl2, CaCl2 or MnCl2)(solid bars) or in the presence of the indicated mM concentrations of MnCl2 (half-tone bars). +EDTA: indicates his-FIN13 incubated in the presence of 10 mM EDTA and 10 mM MnCl2. his-FIN13-cat was incubated in the presence of the indicated mM concentrations of MnCl2 (cross-hatched bars). his-FIN13 was also incubated in the presence of 1 μM okadaic acid (OA), 20 mg/ml poly L-lysine (PL-L), 20 mg/ml protamine sulfate (PS). All incubations were performed for 1 h at 30° C.
# Preparation of ^32 P-labelled casein. Casein (10 mg)(Sigma) was labelled with ^32 P using 10U of the catalytic subunit of cAMP dependent protein kinase (Sigma) in 50 mM Tris-HCl pH 7.0, 0.1 mM EGTA, 10 mM Mg-acetate, 0.1% β-mercaptoethanol, and 0.5 mCi of ^32 PγATP for 12 h at 30° C. The reaction mixture was then precipitated at 4° C. in 20% TCA. Labelled casein was recovered by centrifugation, the pellet washed 5 times in 100% acetone and resuspended in 50 mM Tris-HCl, 0.1 mM EGTA.
# Phosphatase assay. The phosphatase activity of purified FIN13 expressed in bacteria as a fusion protein with N- and C-terminal his-tags was assessed in vitro using ^32 P-labelled casein as a substrate. For preparation of his-FIN13 and his-FIN13-cat from bacteria, the BL21(DE3) strain transformed with pEThis-FIN13 or pEThis-FIN13-cat were induced with 0.2 mM IPTG for 2 h following which the cells were recovered by centrifugation, resuspended in column buffer (50 mM sodium phosphate, pH 8.0, 300 mM NaCl, 1 mM PMSF) and frozen overnight at -70° C. The bacteria were then lysed by sonication at 4° C. and the extract cleared by centrifugation. The supernatant was then adsorbed to Ni-NTA-agarose (Qiagen) at 4° C. for 1 h. The resin was then washed extensively in column buffer without PMSF and his-FIN13 or his-FIN13-cat were eluted using 25 mM Tris-HCl pH 7.2, 100 mM NaCl containing […] imidazole (Sigma). In addition, the phosphatase activity of FIN13 expressed in HeLa cells was also determined in an immune complex using ^32 P-labelled casein as a substrate. For preparation of immune complexes of myc-FIN13, HeLa cells were transfected with […] of pRKmyc-FIN13 or pRK5. Cells were lysed 24 h after transfection in lysis buffer (10 mM Na-phosphate pH 7.4, 100 mM NaCl, 1% TRITON X-100, 10 mM EDTA) also containing a protease/phosphatase inhibitor cocktail (1 mM PMSF, 1 μg/ml pepstatin, 1 μg/ml leupeptin, 1 μg/ml aprotinin, 10 mM Na-orthovanadate, 80 mM NaF, 80 mM β-glycerolphosphate, 10 μM okadaic acid). Cleared lysates (100 μg total protein) were immunoprecipitated with anti-myc monoclonal antibody (9E10) adsorbed to 30 μl protein G sepharose (Zymed) or anti-FIN13 antiserum adsorbed to 30 μl protein A sepharose (Zymed) for 1.5 h at 4° C. The anti-FIN13 polyclonal antiserum (630) was generated against the full length his-FIN13 expressed and purified from bacteria. The IPs were then washed 5 times with lysis buffer, once with 10 mM Tris-HCl pH 7.0, 100 mM NaCl and 5 mM MnCl2, and twice with phosphatase reaction buffer (10 mM Tris-HCl pH 7.0, 0.1 mM EGTA, 10 mM DTT and 10 mM MnCl2) containing 1 μM okadaic acid. Purified his-FIN13, his-FIN13-cat or myc-lPs were then examined for phosphatase activity by incubating the indicated FIN13 preparation in the presence of phosphatase reaction buffer containing ^32 P-labelled casein (1×10^5 cpm; approx. 1 μl) at 30° C. for up to 2 h.
molecule,measurement,setting,value
ERK2-HA: control nuclear protein ERK2 expressed in HeLa cells,cells expressing the protein observed to incorporate BrdU,HeLa cells,greater than 70%
poly L-lysine,effect on his-FIN13 phosphatase activity,his-FIN13,Neither poly L-lysine nor protamine sulfate significantly altered
protamine sulfate,effect on his-FIN13 phosphatase activity,his-FIN13,Neither poly L-lysine nor protamine sulfate significantly altered
"β-galactosidase: control protein, predominantly cytoplasmic",cells expressing the protein observed to incorporate BrdU,HeLa cells,greater than 70%
his-FIN13: purified full length FIN13 expressed in bacteria as fusion protein with N- and C-terminal his-tags (protein) MTIEELLTRYGQNCQKVPPHTKSGIGTGDEPGPQGLNGEAGPEDPSRETPSQENGPTAKGHTGFSSNSEHGTEAGQISEPGTATGEAGPSCSSASDKLPRVAKSKFFEDSEDESDEVEEEEDDSEECSEDEDGYSSEEAENEEDEDDTEEAEEDDDEEMMVPGMEGKEEPGSDSGTTAVVALIRGKQLIVANAGDSRCVVSEAGKALDMSYDHKPEDEVELARIKNAGGKVTMDGRVNGGLNLSRAIGDHFYKRNKNLPPQEQMISALPDIKVLTLTDDHEFMVIACDGIWNVMSSQEVVDFIQSKISQRDENGELRLLSSIVEELLDQCLAPDTSGDGTGCDNMTCIIICFKPRNTVELQAESGKRKLEEALSTEGAEDTGNSDKKKAKRD,MnCl2 concentration giving maximal phosphatase activity,his-FIN13; 32P-labelled casein substrate,10 mM
same,phosphatase activity with other divalent cations,"his-FIN13; in the presence of MgCl2, ZnCl2 or CaCl2 (10 mM)",No activity
same,dephosphorylation of 32P-labelled casein,"his-FIN13; in the presence of Mn2+ ions, 30° C.",able to dephosphorylate
FIN13: novel FGF-inducible type 2C serine/threonine phosphatase (protein) MTIEELLTRYGQNCQKVPPHTKSGIGTGDEPGPQGLNGEAGPEDPSRETPSQENGPTAKGHTGFSSNSEHGTEAGQISEPGTATGEAGPSCSSASDKLPRVAKSKFFEDSEDESDEVEEEEDDSEECSEDEDGYSSEEAENEEDEDDTEEAEEDDDEEMMVPGMEGKEEPGSDSGTTAVVALIRGKQLIVANAGDSRCVVSEAGKALDMSYDHKPEDEVELARIKNAGGKVTMDGRVNGGLNLSRAIGDHFYKRNKNLPPQEQMISALPDIKVLTLTDDHEFMVIACDGIWNVMSSQEVVDFIQSKISQRDENGELRLLSSIVEELLDQCLAPDTSGDGTGCDNMTCIIICFKPRNTVELQAESGKRKLEEALSTEGAEDTGNSDKKKAKRD,cells expressing the protein observed to incorporate BrdU,HeLa cells,10-17%
his-FIN13-cat: catalytic domain of FIN13 (amino acids 195 to 392) with N- and C-terminal poly(6)-histidine tags (protein) DSRCVVSEAGKALDMSYDHKPEDEVELARIKNAGGKVTMDGRVNGGLNLSRAIGDHFYKRNKNLPPQEQMISALPDIKVLTLTDDHEFMVIACDGIWNVMSSQEVVDFIQSKISQRDENGELRLLSSIVEELLDQCLAPDTSGDGTGCDNMTCIIICFKPRNTVELQAESGKRKLEEALSTEGAEDTGNSDKKKAKRD,phosphatase activity of catalytic domain,his-FIN13; 10 mM MnCl2,poor phosphatase activity
same,phosphatase activity of catalytic domain,his-FIN13; 400 mM MnCl2,detectable
